Experimental data taken from patent US8133978.

Columns and labels:
[1] = target: Human interleukin-18 (recombinant human IL-18) (human) (UniProt Q14116); test: cell-based or functional assay
[2] = target: Human interleukin-18 (recombinant human IL-18) (human) (UniProt Q14116); test: ELISA, IL-18 bp-Fc coated at 0.5 ug/ml, human IL-18 added at 100 ng/ml, antibody titrated, detection anti-rat IgG HRP, Abs 490 nm

Human interleukin-18 (recombinant human IL-18) (human), sequence (Q14116 37-193 limits assumed): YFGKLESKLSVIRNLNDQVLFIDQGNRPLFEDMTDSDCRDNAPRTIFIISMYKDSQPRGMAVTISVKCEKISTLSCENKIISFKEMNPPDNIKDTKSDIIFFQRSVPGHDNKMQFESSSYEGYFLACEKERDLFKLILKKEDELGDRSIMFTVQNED

IC50, LPS-stimulated IFNγ release, human PBMC, Donor 1 10% serum [1]: 0.023
IC50, LPS-stimulated IFNγ release, human PBMC, Donor 1 25% serum [1]: 0.069
IC50, LPS-stimulated IFNγ release, human PBMC, Donor 3 10% serum [1]: 0.033
IC50, LPS-stimulated IFNγ release, human PBMC, Donor 3 25% serum [1]: 0.086
complete inhibition of IL-18 mediated IFNγ release, LPS-stimulated human PBMC, 10% or 25% human serum [1]: > 1 µg/mL
inhibition of LPS-induced IFNγ production in human PBMC [1]: 1 µg/mL
EC50 (read off the curve) [2]: 0.04 µg/mL
B1: Parental rat antibody 2C10 (antibody, from another filing, V domains shown)
VH: EVQLQQSGAELVRPGTSVKLSCKVSGEISTGYYFHFVRRRPGQGLEWIGRIDPEDDSTKYAERFKDRATLTAQTSSNTAYLNLSSLTSEDTATYFCTTWRIYRDSSGRPFYVMDAWGQGASVTVSS
VL: DIQMTQSPASLSASLGETVSIECLASEDIYTYLTWYQQKPGKSPQLLIYGANKLQDGVPSRFSGSGSGTQYSLKISGIQPEDEGDYFCLQGSKFPLTFGSGTKLEIKR
